Measurements published in PMC11955279, “The Molecular Mechanism of Interaction Between [sequence]3 and APETALA1 in Arabidopsis thaliana” (Plant Direct, 2025).

Biological target: the molecule itself
Assay: native gel or EMSA; chemiluminescent EMSA; purified protein bound to the biotin-labelled AP1 probe (single CArG cassette) at room temperature; dimer band on the DNA probe

B1: AtSEP3, wild type, recombinant GST-tagged protein (natural protein, Arabidopsis thaliana, UniProt O22456 2-251, looked up)
chain: GRGRVELKRIENKINRQVTFAKRRNGLLKKAYELSVLCDAEVALIIFSNRGKLYEFCSSSSMLRTLERYQKCNYGAPEPNVPSREALAVELSSQQEYLKLKERYDALQRTQRNLLGEDLGPLSTKELESLERQLDSSLKQIRALRTQFMLDQLNDLQSKERMLTETNKTLRLRLADGYQMPLQLNPNQEEVDHYGRHHHQQQQHSQAFFQPLECEPILQIGYQGQQDGMGAGPSVNNYMLGWLPYDTNSI
notes: also called wild-type SEP3 protein; source: E. coli BL-21 (DE3), pGEX-4T-3, purified (GST-tagged protein purification kit)
  binding result: binds
